Changes are numbered by the printed parent chain. Numbers in names are those of the source.

The target of test [1] is sulfonylurea receptor SUR1 (UniProt Q09427).
The target is the same in test [2]. This is another data set of the same source.
For test [3] the target is unchanged. This is another data set of the same source.

UniProt Q09427, sequence (Q09427 whole entry): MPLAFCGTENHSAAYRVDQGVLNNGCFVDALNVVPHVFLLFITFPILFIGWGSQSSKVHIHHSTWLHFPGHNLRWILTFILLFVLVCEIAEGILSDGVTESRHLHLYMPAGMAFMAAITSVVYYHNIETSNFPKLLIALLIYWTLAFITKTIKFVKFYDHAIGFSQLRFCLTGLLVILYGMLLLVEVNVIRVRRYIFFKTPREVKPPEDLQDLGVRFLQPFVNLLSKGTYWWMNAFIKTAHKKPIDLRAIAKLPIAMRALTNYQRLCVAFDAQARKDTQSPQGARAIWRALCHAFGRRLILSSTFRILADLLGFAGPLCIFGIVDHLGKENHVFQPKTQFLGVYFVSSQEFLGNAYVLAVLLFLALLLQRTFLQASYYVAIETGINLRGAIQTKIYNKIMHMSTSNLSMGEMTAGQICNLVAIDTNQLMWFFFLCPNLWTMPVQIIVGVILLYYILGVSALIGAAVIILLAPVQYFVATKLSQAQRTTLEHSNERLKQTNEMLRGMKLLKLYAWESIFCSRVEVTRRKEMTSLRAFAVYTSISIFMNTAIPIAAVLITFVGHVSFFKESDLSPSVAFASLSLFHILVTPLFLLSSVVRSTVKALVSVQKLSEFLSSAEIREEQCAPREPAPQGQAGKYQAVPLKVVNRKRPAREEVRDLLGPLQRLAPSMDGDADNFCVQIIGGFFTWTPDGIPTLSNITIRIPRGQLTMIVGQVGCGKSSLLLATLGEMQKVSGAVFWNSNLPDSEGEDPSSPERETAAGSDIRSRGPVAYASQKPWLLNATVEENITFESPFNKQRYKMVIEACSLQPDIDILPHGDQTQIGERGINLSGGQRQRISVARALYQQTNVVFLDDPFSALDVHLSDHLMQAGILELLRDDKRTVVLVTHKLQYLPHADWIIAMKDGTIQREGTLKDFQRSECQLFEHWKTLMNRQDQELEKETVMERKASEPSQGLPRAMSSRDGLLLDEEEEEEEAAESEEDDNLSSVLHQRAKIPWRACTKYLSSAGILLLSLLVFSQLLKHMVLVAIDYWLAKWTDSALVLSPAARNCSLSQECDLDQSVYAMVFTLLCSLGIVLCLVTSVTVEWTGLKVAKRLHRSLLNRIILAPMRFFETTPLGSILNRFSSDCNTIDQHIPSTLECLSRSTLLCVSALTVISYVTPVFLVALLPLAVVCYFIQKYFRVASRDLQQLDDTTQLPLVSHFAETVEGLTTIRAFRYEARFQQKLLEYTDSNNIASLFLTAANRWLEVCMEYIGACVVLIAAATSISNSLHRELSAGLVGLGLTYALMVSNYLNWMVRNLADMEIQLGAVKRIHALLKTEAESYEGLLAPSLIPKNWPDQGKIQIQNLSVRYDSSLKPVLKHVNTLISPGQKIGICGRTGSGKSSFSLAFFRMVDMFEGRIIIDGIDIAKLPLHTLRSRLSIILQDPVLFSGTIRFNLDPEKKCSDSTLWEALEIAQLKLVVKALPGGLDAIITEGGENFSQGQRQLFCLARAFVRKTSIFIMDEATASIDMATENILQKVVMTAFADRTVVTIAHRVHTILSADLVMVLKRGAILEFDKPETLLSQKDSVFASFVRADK

B1: Kir6.2 wild-type linked to GFP at the COOH terminus (natural protein)
chain: MLSRKGIIPEEYVLTRLAEDPAEPRYRTRERRARFVSKKGNCNVAHKNIREQGRFLQDVFTTLVDLKWPHTLLIFTMSFLCSWLLFAMVWWLIAFAHGDLAPGEGTNVPCVTSIHSFSSAFLFSIEVQVTIGFGGRMVTEECPLAILILIVQNIVGLMINAIMLGCIFMKTAQAHRRAETLIFSKHAVITLRHGRLCFMLRVGDLRKSMIISATIHMQVVRKTTSPEGEVVPLHQVDIPMENGVGGNGIFLVAPLIIYHVIDSNSPLYDLAPSDLHHHQDLEIIVILEGVVETTGITTQARTSYLADEILWGQRFVPIVAEEDGRYSVDYSKFGNTIKVPTPLCTARQLDEDRSLLDALTLASSRGPLRKRSVAVAKAKPKFSISPDSLS
Molecule B1 came in with a reactivation by MgADP of ATP-inhibited channels, inside-out patch clamp in test [1] of 46%. In addition, the inhibition of channel activity by 200 nM glyburide, inside-out patch clamp in test [2] amounted to 45%.

B2: Kir6.2 mutant R176C linked to GFP (natural protein)
chain: B1 chain with R176C
The molecule B2 gave a reactivation by MgADP of ATP-inhibited channels, inside-out patch clamp in test [1] of 6%. In test [3], this molecule registered an inhibition of channel activity by 0.5 μM glyburide, inside-out patch clamp of 5.5%.

(Values after article PMC2233703.)
